# Reference: publication PMC6073757
# Values joined by “and” are separate entries in the source; they are usually repeats but may differ in a detail not shown here. Equal values may be shown once.
# Legend:
# [1] = biological target: LrtA protein of Synechocystis sp. PCC 6803 (Synechocystis sp. PCC 6803); assay: cross-linking; glutaraldehyde 1% final, 97 uM LrtA (protomer units), 50 mM Tris pH 8.0, 0.5 M NaCl, room temperature; aliquots on 12% SDS-PAGE
# [2] = biological target: LrtA protein of Synechocystis sp. PCC 6803 (Synechocystis sp. PCC 6803); assay: SEC; Superose 12 10/300 GL, 50 mM Tris pH 8.0, 0.7 M NaCl, 97 uM LrtA (protomer units) loaded in 100 uL, 25 °C; calibrated with blue dextran, albumin, RNase A
substance,measurement,setting,value
LrtA protein of Synechocystis sp. PCC 6803 (natural protein),stoichiometry N,[1],2
same,stoichiometry N,[2],6 and 12
